# B1: DNA repair protein XRCC4 (Homo sapiens), Q13426 (parent)
# chain: MERKISRIHLVSEPSITHFLQVSWEKTLESGFVITLTDGHSAWTGTVSESEISQEADDMAMEKGKYVGELRKALLSGAGPADVYTFNFSKESCYFFFEKNLKDVSFRLGSFNLEKVENPAEVIRELICYCLDTIAENQAKNEHLQKENERLLRDWNDVQGRFEKCVSAKEALETDLYKRFILVLNEKKTKIRSLHNKLLNAAQEREKDIKQEGETAICSEMTADRDPVYDESTDEESENQTDLSGLASAAVSKDDSIISSLDVTDIAPSRKRRQRMQRNLGTEPKMAPQENQLQEKENSRPDSSLPETSKKEHISAENMSLETLRNSSPEDLFDEI
# Variants of: B1
# Details: with pnkp_human PNKP
row,effect of a mutation on the interaction,Variant
1,disrupting interaction,T233A
